Test results as given in patent publication US20260234276A1 (DOMAIN THERAPEUTICS, published 2026).
Values joined by “and” are separate entries in the source; they are usually repeats but may differ in a detail not shown here. Equal values may be shown once.

B1: 3-80 (antibody, human IgG1, kappa, V domains shown)
VH: QVQLVQSGPEVVKPGASVKVSCKTSGYTFTEYTIHWVRQAPGQSLEWVGGINPNNGNTRYDQKFQGRVTITRDKSASTAYMELRSLTSEDTAVYYCARVARSSGSGPYAMDYWGQGTTVTVSS
VL: DVVMTQSPLSLPVTLGDQASISCRCSQSLLHTNGDTYLHWYLQRPGQSPRLLIYKVSNRFSGVPDRFSGSGSGTDFTLKISRVEAEDVGVYFCSQSTHVPYTFGGGTKVEIKR
notes: humanized, human IgG1 kappa
B2: 3-82 (antibody, human IgG1, kappa, V domains shown)
VH: QVQLVESGGGVVQPGRSLRLSCAASGFTFSNYRMHWVRQAPGKGLEWIAVIKVKSDNYGANYADSVKGRFTISRDNSKNTLYLQMNSLRAEDTAVYYCSSPTYPGSSGFAYWGQGTLVTVSS
VL: DIQMTQSPSSLSASVGDRVTITCRASQDISNYLNWYQQKPDGTVKLLIYYTSRLHTGVPSRFSGSGSGTDYTLTISNLQQEDIATYFCQQGNKFPPTFGGGTKVEINR
notes: humanized, human IgG1 kappa
B3: Ref #1 (antibody, human IgG1, V domains shown)
VH: EVQLLESGGGLVQPGGSLRLSCAASGFTFSSYGMHWVRQAPGKGLEWVSAINWNGGSTGYADSVKGRFTISRDNSKNTLYLQMNSLRAEDTAVYYCARGHHSGYDGRFFDYWGQGTLVTVSS
VL: QSVLTQPPSVSGAPGQRVTISCTGSSSNIGAGYNVHWYQQLPGTAPKLLIYTNNRRPSGVPDRFSGSKSGTSASLAISGLRSEDEADYYCAAWDASLSGWVFGGGTKLTVL
notes: benchmark from WO 2021/260210; human IgG1, produced in CHO; also called TPP-21360
B4: 3-5 (antibody, V domains shown)
VH: EVQLLESGGGLVQPKGSLKLSCAASGFTFNPYAMNWVRQAPGRGLEWVARIRSKSNNYATYYADSVKDRFTISRDDSQDMLYLQMNNLKTEDTAMYYCVRGREAYYRYDGDYYAMDYWGQGTSVTVSS
VL: DIVMTQAAPSVPVTPGESVSISCRSSKSLLHSNGNTYLYWFLQRPGQSPQLLIYRMSNLASGVPDRFSGSGSGTAFTLRISRVEAEDVGVYYCMQHLEYPFTFGSGTKLEIK
B5: 3-79 (antibody, human IgG1, kappa, V domains shown)
VH: EVQLLESGGGLVQPGGSLRLSCAASGFTFNAYAMNWVRQAPGKGLEWVARIRSKSNDYATYYGDSVKGRFTISRDNSKNTLYLQMNSLRAEDTAVYYCVRGREAYYRYDGGYYAMDVWGQGTTVTVSS
VL: DIVMTQSPLSLPVTPGEPASISCRSSKSLLHSNGNTYLYWFLQKPGQSPQLLIYRVSNLASGVPDRFSGSGSGTDFTLKISRVEAEDVGVYYCMQHREYPFTFGQGTKLEIKR
notes: humanized, human IgG1 kappa

What was measured:
CCR8 SNAP-tag = CCR8 SNAP-tag (human, UniProt P51685 1-355, SNAP-tag labelled with Lumi4-Terbium); experiment: cell-based or functional assay
human CCR8 [1] = target: T1, human CCR8 (human, UniProt P51685 1-355); experiment: cell-based or functional assay
human CCR8 [2] = target: T1, human CCR8; experiment: cell-based or functional assay; remark: listed apart in the source
human CCR8 [3] = target: T1, human CCR8; experiment: competition HTRF on HEK-293 cells with hCCR8; blocked ligand CCL1-AF647 [cont.]
human CCR8 [4] = target: T1, human CCR8; experiment: cell-based or functional assay; remark: listed apart in the source
human CCR8 [5] = target: T1, human CCR8; experiment: flow cytometry, HUT78 cells (native CCR8)
Procedure: The same staining protocol was applied on human CCR8 transfected CHO cell line versus wild type CHO cell line, cutaneous T cell lymphoma HUT78 cell line and human activated T cell model.
(§1) Briefly, 1·10⁵ cells per well in a 96 well plate were incubated with a dilution of unconjugated anti-CCR8 mAb at 10 μg/mL then diluted at 1/3.33, 4 dilution points (during 30 min at 4° C.). […] To determine EC50 value, 8 concentrations of anti-CCR8 mAb were tested. Unbound antibodies were washed away with PBS (Invitrogen by Thermofisher Scientific, Illkirch-Graffenstaden, France) supplemented by 2% Fetal Bovine Serum (Invitrogen by Thermofisher Scientific, Illkirch-Graffenstaden, France) and 2 mM EDTA (Invitrogen by Thermofisher Scientific, Illkirch-Graffenstaden, France). Subsequently, cells are centrifuged (5 min at 400 g) and bound antibody is detected with F(ab′)₂-Goat anti-Mouse IgG (H+L) Cross-Adsorbed Secondary Antibody, Alexa Fluor 488 (dilution 1/500) (Invitrogen by Thermofisher Scientific, Illkirch-Graffenstaden, France) or with F(ab′)₂-Goat anti-Human IgG Fc Secondary Antibody, PE (Invitrogen by Thermofisher Scientific, Illkirch-Graffenstaden, France) (dilution 1/1000) at 4° C. for 30 min. Detection reagent is washed away and cells are centrifuged (5 min at 400 g) and resuspended in 30 μL PBS. Bound detection antibody is quantified on a MacsQuant16 (Miltenyi, Gladbach, Germany) (B1 or B2 channel, 5000 events per acquisition).

pm8 = pm8 (human, sulfated tyrosines at Y15, Y16 and Y17); experiment: ELISA on coated peptide [cont.]
Method in brief: (§2)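 Binding is scored by optical density: plates carry 500 ng/mL peptide in carbonate/bicarbonate buffer, receive mAb at 1 μg/mL or diluted 1/10 for 90 min at room temperature, then TMB for 15 min.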

pm2 = pm2 (human, sulfated tyrosine(s) among Tyr 15, Tyr 16, Tyr 17; marked only by underlining, lost in the text); experiment: ELISA on coated peptide [cont.]
Method in brief: as §2

pwt1 = target: T2, pwt1 (human); experiment: ELISA on coated peptide [cont.]
T2 construct: also called unmodified peptide
Method in brief: as §2

pm6 = pm6 (human, sulfated tyrosines at Y16 and Y17); experiment: ELISA on coated peptide [cont.]
Method in brief: as §2

pm1 [6] = target: T3, pm1 (human, sulfated tyrosine(s) among Tyr 15, Tyr 16, Tyr 17; marked only by underlining, lost in the text); experiment: ELISA on coated peptide [cont.]
Method in brief: as §2

pm4 [7] = target: T4, pm4 (human, sulfated tyrosine(s) among Tyr 15, Tyr 16, Tyr 17; marked only by underlining, lost in the text); experiment: ELISA on coated peptide [cont.]
Method in brief: as §2

pm5 = pm5 (human, sulfated tyrosines at Y15 and Y17); experiment: ELISA on coated peptide [cont.]
Method in brief: as §2

pm3 = pm3 (human, sulfated tyrosine at Y17); experiment: ELISA on coated peptide [cont.]
Method in brief: as §2

human CCR8 [8] = target: T1, human CCR8; experiment: competition HTRF on HEK-293 cells with hCCR8; blocked ligand CCL1-AF647 [cont.]; remark: listed apart in the source
human CCR8 [9] = target: T1, human CCR8; experiment: flow cytometry, human activated T cells pre-incubated with 200 nM hCCL1
Procedure: as §1
(§3) Binding characteristics of anti-CCR8 mAb cellular reactivity was further investigated by testing their binding to activated T cells.

human CCR8 [10] = target: T1, human CCR8; experiment: cell-based or functional assay; remark: listed apart in the source
human CCR8 [11] = target: T1, human CCR8; experiment: flow cytometry, human activated T cells
Procedure: as §1, §3

human CCR8 [12] = target: T1, human CCR8; experiment: flow cytometry, hCCR8 transfected CHOK1 cells
Procedure: as §1
EC50 values were not constantly determined in the same experiments.

human CCR8 [13] = target: T1, human CCR8; experiment: flow cytometry, hCCR8 transfected CHOK1 cells; remark: listed apart in the source
human CCR8 [14] = target: T1, human CCR8; experiment: competition flow cytometry on hCCR8 transfected CHO cells; blocked ligand CCL1-AF647
human CCR8 [15] = target: T1, human CCR8; experiment: competition flow cytometry on hCCR8 transfected CHO cells; blocked ligand CCL1-AF647 [cont.]
pm1 [16] = target: T3, pm1; experiment: ELISA on coated peptide
Procedure: (§4) The specific binding properties of antibodies were evaluated by ELISA with coated CCR8 related peptides (500 ng/mL) in carbonate/bicarbonate buffer. Different peptides were used as described in Table 1 (see Example 1). Each anti-CCR8 mAb was tested at 1 μg/mL then diluted at 1/10. After an incubation at room temperature during 90 min, unbound mAbs were removed by washings. […] After washings, 3,3′,5,5′-tetramethylbenzidine (TMB) (Interchim, Montlugon, France) was added for 15 min. Then the optical density (OD) was determined by using a multiplate reader (Tecan, Lyon, France) and correlated with mAb reactivity on the panel of coated peptides.

pm4 [17] = target: T4, pm4; experiment: ELISA on coated peptide
Procedure: as §4

pm3 (human, sulfated tyrosine at Y17), sequence (peptide, as listed by the source): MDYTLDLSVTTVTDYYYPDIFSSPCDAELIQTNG
pm5 (human, sulfated tyrosines at Y15 and Y17), sequence (peptide, as listed by the source): as above
pm8 (human, sulfated tyrosines at Y15, Y16 and Y17), sequence (peptide, as listed by the source): as above
pm6 (human, sulfated tyrosines at Y16 and Y17), sequence (peptide, as listed by the source): as above
T3 sequence (peptide, as listed by the source): as above
T4 sequence (peptide, as listed by the source): as above
T2 sequence (peptide, as listed by the source): as above
pm2 (human, sulfated tyrosine(s) among Tyr 15, Tyr 16, Tyr 17; marked only by underlining, lost in the text), sequence (peptide, as listed by the source): as above

Binder	% of internalization at 1 µg/ml mAb (HTRF) (CCR8 SNAP-tag)	% of internalization at 10 µg/ml mAb (HTRF) (CCR8 SNAP-tag)	IC50 (Gi2 BRET, pH 6.5) (human CCR8 [1])	IC50 (Gi2 BRET, pH 7.4) (human CCR8 [1])	ADCC % Max lysis, NK cells Donor 3 (human CCR8 [2])	ADCC % Max lysis, NK cells Donor 4 (human CCR8 [2])	ADCC EC50, NK cells Donor 3 (human CCR8 [2])	ADCC EC50, NK cells Donor 4 (human CCR8 [2])	IC50 (read off the curve) (human CCR8 [3])	hCCL1 (100 nM) residual response, Protocol #2, mAb 0.08 µg/mL (human CCR8 [4])	hCCL1 (100 nM) residual response, Protocol #2, mAb 0.4 µg/mL (human CCR8 [4])	hCCL1 (100 nM) residual response, Protocol #2, mAb 10 µg/mL (human CCR8 [4])	hCCL1 (100 nM) residual response, Protocol #3, mAb 0.05 µg/mL (human CCR8 [4])	hCCL1 (100 nM) residual response, Protocol #3, mAb 0.5 µg/mL (human CCR8 [4])	hCCL1 (100 nM) residual response, Protocol #3, mAb 5 µg/mL (human CCR8 [4])	% of labelled cells (human CCR8 [5])	binding result (pm8)	binding result (pm6)	binding result (pm5)	binding result (pm3)	also measured
B1	44%	29%	0.011 µg/ml and 0.072 nM	0.022 µg/ml and 0.148 nM	15%	16%	0.505 nM	0.573 nM	~0.03 µg/mL	67%	55%	32%	86%	60%	42%	96%	binds	binds	binds	binds	binding result (pm2): binds; binding result (pwt1): binds; binding result (pm1 [6]): binds; binding result (pm4 [7]): binds
B2			0.018 µg/ml and 0.12 nM	0.02 µg/ml and 0.134 nM	16%	19%	0.349 nM	1.91 nM		85%	94%	60%	93%	85%	62%	93%					IC50 (read off the curve) (human CCR8 [8]): ~0.02 µg/mL; % of labelled cells (human CCR8 [9]): 54%; Top plateau value (% of hCCL1 100 nM) with 5 µg/mL mAb, Protocol #3 (human CCR8 [10]): 794%; % of labelled cells (human CCR8 [11]): 63%; EC50 (human CCR8 [12]): 0.1 nM
B3	126%	111%																			% positive cells (human CCR8 [13]): 75.1%; MFI fold change to isotype ctrl (human CCR8 [13]): 8.7 fold; IC50 (read off the curve) (human CCR8 [14]): ~0.7 µg/mL
B4			0.021 µg/ml and 0.143 nM	0.163 nM and 0.024 µg/ml						81%	69%	44%	77%	57%	49%		binds	binds	binds	binds	% positive cells (human CCR8 [13]): 72.8%; MFI fold change to isotype ctrl (human CCR8 [13]): 6.32 fold; IC50 (read off the curve) (human CCR8 [15]): ~1 µg/mL
B5	139%	52%	0.077 µg/ml and 0.514 nM	0.068 µg/ml and 0.452 nM					~0.2 µg/mL	94%	77%	31%	110%	76%	33%	97%	binds	binds	binds	binds	% of labelled cells (human CCR8 [9]): 92%; binding result (pm1 [16]): binds; binding result (pm4 [17]): binds; % of labelled cells (human CCR8 [11]): 92%
